# From patent US20060121042A1 (AstraZeneca / MedImmune, published 2006)
# Residue numbers refer to the chain shown, from its start.
# B1: 6B7 Fab (affinity optimized combinatorial variant of Fab20) (Fab, V domains shown)
# VH: QVQLLQSGAEVKKPGASVKVPCKASGYTFTSRAMSWVRQAPGQGLEWMGWINTNTGNPTYAQGFTGRFVFSLDTSVSTAYLQISSLKAEDTAVYYCARVRFTVYGDGMDVWGQGTLVTVSS
# VL: EIVLTQSPATLSVSPGERATLSCRASQSVSSNPAWYQQKPGQAPRLLIYGASTRATGIPDRFSASGSGTDFTLTISRVEPEDFAVYYCQQYGPSWTFGQGTKVEIK
# B2: 1D11 Fab (affinity optimized combinatorial variant of Fab20) (Fab, V domains shown)
# VH: B1 VH with F101T, G107N
# VL: B1 VL with P33L, A34P
# B3: 1A4 IgG1 (affinity optimized combinatorial variant of mAb GEA44 in human IgG1 format) (antibody, V domains shown)
# VH: B1 VH with F64S
# VL: B1 VL
# B4: 1G11 IgG1 (affinity optimized combinatorial variant of mAb GEA44 in human IgG1 format) (antibody, V domains shown)
# VH: B1 VH
# VL: B1 VL with P33L, A34P, A55P
# B5: 1B10 Fab (affinity optimized combinatorial variant of Fab20) (Fab, V domains shown)
# VH: B1 VH
# VL: B1 VL with R54W
# B6: 1A4 Fab (affinity optimized combinatorial variant of Fab20) (Fab, V domains shown)
# VH: B1 VH with F64S
# VL: B1 VL
# B7: 3C6 Fab (affinity optimized combinatorial variant of Fab20) (Fab, V domains shown)
# VH: B1 VH with F101L
# VL: B1 VL with A34P, P93S
# B8: 1G11 Fab (affinity optimized combinatorial variant of Fab20) (Fab, V domains shown)
# VH: B1 VH
# VL: B1 VL with P33L, A34P, A55P
# B9: 8B4 IgG1 (affinity optimized combinatorial variant of mAb GEA44 in human IgG1 format) (antibody, V domains shown)
# VH: B1 VH with F101L
# VL: B1 VL with A51L
# B10: 1D11 IgG1 (affinity optimized combinatorial variant of mAb GEA44 in human IgG1 format) (antibody, V domains shown)
# VH: B1 VH with F101T, G107N
# VL: B1 VL with P33L, A34P
# B11: 4H5 (antibody, V domains shown)
# VH: QVQLLESGGGLVQPGGSLRLSCAASGFTFSSYTMSWVRQAPGQALEWMGTISSGGTYTYYPDSVKGRFTISRDNAKNSLYLQMNSLRAEDTAVYYCAREAIFTYWGRGTLVTVSS
# VL: DIQLTQSPSSLSASVGDRVTITCKASQDINNYLSWYQQKPGQAPRLLIYRANRLVDGVPDRFSGSGYGTDFTLTINNIESEDAAYYFCLKYDVFPYTFGQGTKVEIK
# B12: 12G3H11 (antibody, V domains shown)
# VH: QMQLVQSGPEVKKPGTSVKVSCKASGFTFDDYSMNWVRQARGQRLEWIGFIRNKANDYTTEYADSVKGRVTITRDMSTSTAYMELSSLRSEDTAVYYCARYPRHHAMDSWGQGTSVTVSS
# VL: DIQMTQSPSSLSASVGDRVTITCRASQSISNNLHWYQQKPGKAPKLLIKYAFQSISGVPSRFSGSGSGTDFTFTISSLQPEDFATYYCQQANSWPLTFGGGTKVEIK
# B13: EA5 (antibody, V domains shown)
# VH: EVQLQQSGPELVKTGASVKISCKASGYSFTGYYMHWVKQSHGKSLEWIGYISCYNGVTSYNQKFKGKATFTVDTSSSTAYMQFNSLTSEDSAVYYCARSHAMDYWGQGTSVTVSS
# VL: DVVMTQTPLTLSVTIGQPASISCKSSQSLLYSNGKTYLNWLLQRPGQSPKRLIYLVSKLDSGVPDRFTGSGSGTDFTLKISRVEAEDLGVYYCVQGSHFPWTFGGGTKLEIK
# Key:
# r murine EphA4 [1] = target: T1, r murine EphA4 (mouse, UniProt Q03137); test: activity ELISA, Fab on coated antigen
# T1 construct: recombinant Fc fusion (R&D Systems); also called rmuEphA4-Fc; mEphA4
# Description: (§1) More precisely, Nunc Maxisorp plates were coated with the following rEphA proteins: rhuEphAl-Fc, rmuEphA2-Fc, rmuEphA3-Fc, rmuEphA4-Fc, rratEphA5-Fc, rmuEphA6-Fc, rmuEphA7-Fc, rEphA8; all at 0.5 μg/well (all R&D Systems) rhuEphA2-Fc; 0.5 μg/well, and rhuEphA4-His; 0.1 μg/well (both produced at MedImmune, Inc.). Plates were blocked with 3% BSA+0.1% Tween20 for 2 h. […] Incubation with a goat anti-human kappa horseradish peroxydase (HRP) conjugate then followed. HRP activity was detected with TMB substrate and the reaction quenched with 0.2 M H₂SO₄. Plates were read at 450 nm. Data was analyzed by normalizing Fab concentrations to the corresponding activity data (see FIGS. 10B-10H).
# r murine EphA7 [2] = target: T2, r murine EphA7 (mouse, UniProt Q61772); test: activity ELISA, Fab on coated antigen
# T2 construct: recombinant Fc fusion (R&D Systems); also called rmuEphA7-Fc; mEphA7
# T2 sequence (receptor-Fc fusion, looked up): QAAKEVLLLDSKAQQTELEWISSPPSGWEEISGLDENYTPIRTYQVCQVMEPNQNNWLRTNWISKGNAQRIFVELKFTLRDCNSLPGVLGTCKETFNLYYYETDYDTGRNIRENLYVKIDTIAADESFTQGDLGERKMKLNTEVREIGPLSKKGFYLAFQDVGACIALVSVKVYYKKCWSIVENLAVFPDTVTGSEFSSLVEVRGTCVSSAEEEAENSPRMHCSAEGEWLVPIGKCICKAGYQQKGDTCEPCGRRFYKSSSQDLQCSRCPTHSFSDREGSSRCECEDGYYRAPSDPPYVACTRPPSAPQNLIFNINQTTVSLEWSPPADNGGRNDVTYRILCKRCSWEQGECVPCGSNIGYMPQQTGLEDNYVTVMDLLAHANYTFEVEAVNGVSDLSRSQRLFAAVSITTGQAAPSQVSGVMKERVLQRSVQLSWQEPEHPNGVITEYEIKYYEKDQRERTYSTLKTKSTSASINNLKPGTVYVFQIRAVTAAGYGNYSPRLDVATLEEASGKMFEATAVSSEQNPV
# Description: as §1
# r murine EphA3 [3] = target: T3, r murine EphA3 (mouse, UniProt P29319); test: activity ELISA, Fab on coated antigen
# T3 construct: recombinant Fc fusion (R&D Systems); also called rmuEphA3-Fc; mEphA3
# T3 sequence (receptor-Fc fusion, looked up): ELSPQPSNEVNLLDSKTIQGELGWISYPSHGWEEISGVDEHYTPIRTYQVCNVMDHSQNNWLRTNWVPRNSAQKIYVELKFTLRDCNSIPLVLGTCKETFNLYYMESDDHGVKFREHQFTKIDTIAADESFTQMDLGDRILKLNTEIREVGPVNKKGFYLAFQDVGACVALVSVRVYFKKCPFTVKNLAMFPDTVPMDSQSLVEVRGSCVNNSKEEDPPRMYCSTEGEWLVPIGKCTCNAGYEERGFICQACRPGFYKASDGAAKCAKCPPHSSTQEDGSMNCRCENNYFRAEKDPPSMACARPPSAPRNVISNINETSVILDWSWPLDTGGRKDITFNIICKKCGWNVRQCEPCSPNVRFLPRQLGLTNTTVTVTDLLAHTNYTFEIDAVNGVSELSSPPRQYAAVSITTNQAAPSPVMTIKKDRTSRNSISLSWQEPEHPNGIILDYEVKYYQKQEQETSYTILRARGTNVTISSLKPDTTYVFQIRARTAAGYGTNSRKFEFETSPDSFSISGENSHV
# Description: as §1
# mEphA3 = target: T4, mEphA3 (mouse, UniProt P29319); test: ELISA, receptor coated on the plate, purified IgG, anti-human kappa-HRP
# T4 construct: part of an Fc fusion; also called rmuEphA3-Fc
# T4 sequence (receptor-Fc fusion, looked up): T3 sequence (receptor-Fc fusion, looked up)
# Description: (§2) Secondary screening of IgG constructs of affinity optimized combinatorial variants with additional EphA receptors: With purified IgG constructs of the nine combinatorial variants, additional secondary screening assays were performed using the Activity ELISA (see above) and recombinant EphA receptor proteins. More precisely, Nunc Maxisorp plates were coated with the following rEphA proteins: rhuEphAl-Fc; 0.5 μg/well, rmuEphA2-Fc; 0.5 μg/well, rmuEphA3-Fc: 0.1 μg/well, rmuEphA4-Fc; 0.1 μg/well, rratEphA5-Fc; 0.5 μg/well, rmuEphA6-Fc; 0.5 μg/well, rmuEphA7-Fc; 0.1 μg/well, rEphA8; 0.2 μg/well (all R&D Systems), rhuEphA2-Fc; 0.5 μg/well, and rhuEphA4-His; 0.1 μg/well (both produced at MedImmune, Inc.). Plates were blocked with 3% BSA+0.1% Tween20 for 2 h. […] Incubation with a goat anti-human kappa horseradish peroxydase (HRP) conjugate then followed. HRP activity was detected with TMB substrate and the reaction quenched with 0.2 M H₂SO₄. Plates were read at 450 nm. Data was analyzed by normalizing Fab concentrations to the corresponding activity data (see FIGS. 12A-12J and 14).
# mEphA7 = target: T5, mEphA7 (mouse, UniProt Q61772); test: as above
# T5 construct: part of an Fc fusion; also called rmuEphA7-Fc
# T5 sequence (receptor-Fc fusion, looked up): T2 sequence (receptor-Fc fusion, looked up)
# Description: as §2
# mEphA4 = target: T6, mEphA4 (mouse, UniProt Q03137); test: as above
# T6 construct: part of an Fc fusion; also called rmuEphA4-Fc
# Description: as §2
# [4] = target: T7, Human EphA4-Fc fusion protein (human, UniProt P54764 20-547); test: BIAcore, IgG immobilized on the sensor chip, EphA4-Fc as analyte
# T7 construct: not shown: Fc portion of a human IgG1
# Description: (§3) FIG. 15A-15B. […] Binding affinities were measured using the BIAcore assay. […] Variant kinetic measurements for human EphA4 and were obtained using BIAcore with immobilized variant antibodies and human EphA4-Fc and EphA4-His as analytes.
# [5] = target: T8, Human EphA4-His fusion protein (human, UniProt P54764 20-547); test: BIAcore, IgG immobilized on the sensor chip, EphA4-his as analyte
# T8 construct: also called rhuEphA4-His; not shown: Histidine tag
# Description: as §3
# r murine EphA4 [6] = target: T1, r murine EphA4; test: activity ELISA, IgG on coated antigen
# Description: as §2
# r murine EphA7 [7] = target: T2, r murine EphA7; test: activity ELISA, IgG on coated antigen
# Description: as §2
# r murine EphA3 [8] = target: T3, r murine EphA3; test: activity ELISA, IgG on coated antigen
# Description: as §2
# hEphA2 = target: T9, hEphA2 (human, UniProt P29317); test: ELISA
# T9 construct: also called human EphA2
# T9 sequence (P29317 25-534 limits assumed): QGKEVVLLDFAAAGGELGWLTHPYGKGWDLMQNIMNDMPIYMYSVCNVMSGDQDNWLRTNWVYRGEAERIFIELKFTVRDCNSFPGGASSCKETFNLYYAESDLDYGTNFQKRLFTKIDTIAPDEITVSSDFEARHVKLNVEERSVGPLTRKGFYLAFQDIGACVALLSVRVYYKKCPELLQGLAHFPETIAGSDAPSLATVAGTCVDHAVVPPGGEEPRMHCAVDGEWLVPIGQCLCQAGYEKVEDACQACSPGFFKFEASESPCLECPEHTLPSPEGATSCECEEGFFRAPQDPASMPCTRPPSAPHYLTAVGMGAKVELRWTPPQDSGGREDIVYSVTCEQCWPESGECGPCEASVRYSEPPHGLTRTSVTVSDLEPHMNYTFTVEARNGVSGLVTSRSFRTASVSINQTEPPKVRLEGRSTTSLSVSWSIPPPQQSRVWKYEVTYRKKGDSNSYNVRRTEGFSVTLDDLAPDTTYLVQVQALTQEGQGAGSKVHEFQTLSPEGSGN
# T7 sequence (P54764 20-547): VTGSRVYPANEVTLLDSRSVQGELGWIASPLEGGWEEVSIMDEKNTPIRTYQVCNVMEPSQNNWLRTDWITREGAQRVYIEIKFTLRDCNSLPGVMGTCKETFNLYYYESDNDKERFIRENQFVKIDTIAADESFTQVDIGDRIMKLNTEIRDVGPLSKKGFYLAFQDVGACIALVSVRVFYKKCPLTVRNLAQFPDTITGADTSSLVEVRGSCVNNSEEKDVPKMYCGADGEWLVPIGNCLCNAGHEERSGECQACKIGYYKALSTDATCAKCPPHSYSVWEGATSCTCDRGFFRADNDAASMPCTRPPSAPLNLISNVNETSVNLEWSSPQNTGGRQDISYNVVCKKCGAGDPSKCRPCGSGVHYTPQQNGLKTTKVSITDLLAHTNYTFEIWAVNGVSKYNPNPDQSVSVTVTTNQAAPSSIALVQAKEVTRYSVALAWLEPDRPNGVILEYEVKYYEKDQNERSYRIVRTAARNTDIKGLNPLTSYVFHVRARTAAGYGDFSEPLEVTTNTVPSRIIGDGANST
# T8 sequence (P54764 20-547): as above
# T1 sequence (Q03137 20-547 limits assumed): as the sequence (P54764 20-547) above, with P59A, N121S, V124G, R250Q, S251N, T270S, K378R, N406S counted along it
# T6 sequence (Q03137 20-547 limits assumed): as the sequence (P54764 20-547) above, with P59A, N121S, V124G, R250Q, S251N, T270S, K378R, N406S counted along it
binder,measurement,setting,value
B1,binding result,r murine EphA4 [1],binds
same,binding result,r murine EphA7 [2],binds
same,binding result,r murine EphA3 [3],binds
B2,binding result,r murine EphA4 [1],binds
same,binding result,r murine EphA7 [2],binds
B3,binding result,mEphA3,binds
same,binding result,mEphA7,binds
same,binding result,mEphA4,binds
same,Kd,[4],0.037 nM
same,koff,[4],2.87e-05 s⁻¹
same,kon,[4],769000 M⁻¹ s⁻¹
same,Kd,[5],0.8 nM
same,koff,[5],0.000345 s⁻¹
same,kon,[5],431000 M⁻¹ s⁻¹
same,binding result,r murine EphA4 [6],binds
same,binding result,r murine EphA7 [7],binds
same,binding result,r murine EphA3 [8],binds
B4,binding result,mEphA3,binds
same,binding result,mEphA7,binds
same,binding result,mEphA4,binds
same,Kd,[4],0.059 nM
same,koff,[4],1.01e-05 s⁻¹
same,kon,[4],172000 M⁻¹ s⁻¹
same,binding result,r murine EphA4 [6],binds
same,binding result,r murine EphA7 [7],binds
same,binding result,r murine EphA3 [8],binds
B5,binding result,r murine EphA4 [1],binds
same,binding result,r murine EphA7 [2],binds
B6,binding result,r murine EphA4 [1],binds
same,binding result,r murine EphA7 [2],binds
same,binding result,r murine EphA3 [3],binds
B7,binding result,r murine EphA4 [1],binds
same,binding result,r murine EphA7 [2],binds
B8,binding result,r murine EphA4 [1],binds
same,binding result,r murine EphA7 [2],binds
same,binding result,r murine EphA3 [3],binds
B9,Kd,[4],0.197 nM
same,koff,[4],2.2e-05 s⁻¹
same,kon,[4],112000 M⁻¹ s⁻¹
B10,binding result,mEphA7,binds
same,binding result,mEphA4,binds
same,Kd,[4],0.176 nM
same,koff,[4],6.15e-05 s⁻¹
same,kon,[4],350000 M⁻¹ s⁻¹
same,Kd,[5],8.8 nM
same,koff,[5],0.000984 s⁻¹
same,kon,[5],112000 M⁻¹ s⁻¹
same,binding result,r murine EphA4 [6],binds
same,binding result,r murine EphA7 [7],binds
B11,ELISA O.D. value,hEphA2,0.724
B12,ELISA O.D. value,hEphA2,0.849
B13,ELISA O.D. value,hEphA2,0.131
